# Results taken from paper PMC10833071.
# Target: TdsR receptor of E. coli (on cells) (E. coli (endogenous in E. coli cells))
# Test: flow cytometry on cells
substance,measurement,value
TepC-GFP (natural protein),GFP-labeled cells,33.1%
